Measurements as given in FireProtDB (doi:10.1111/j.1432-1033.1994.tb18664.x).

Conditions: Escherichia coli (strain K12), Thermal, CD, NaCl 0.1 M, reversible: yes, whole UniProt chain shown

B1: Ribonuclease HI wild type, P0A7Y4 (protein)
chain: MLKQVEIFTDGSCLGNPGPGGYGAILRYRGREKTFSAGYTRTTNNRMELMAAIVALEALKEHCEVILSTDSQYVRQGITQWIHNWKKRGWKTADKKPVKNVDLWQRLDAALGQHQIKWEWVKGHAGHPENERCDELARAAAMNPTLEDTGYQVEV
pH 3, glycine-HCl 10 mM
  Tm: 50 °C
  unfolding enthalpy (van 't Hoff): 107 kcal/mol
pH 5.5, Sodium acetate 20 mM
  Tm: 53.1 °C
  unfolding enthalpy (van 't Hoff): 83.3 kcal/mol
